From patent US20220275027A1 (TRUSTEES OF PRINCETON UNIVERSITY, published 2022)
Where no end group is shown, it is not given here.

T1: Fl-Cat^N (fluorescein labeled Cat^N peptide) (N-terminus capped with 5(6)-carboxyfluorescein)
T1 construct: Made by Fmoc solid phase synthesis; also called FI-Cat^N; Cat^N containing an N-terminal fluorescein
T1 peptide: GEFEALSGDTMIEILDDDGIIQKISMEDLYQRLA

B1: FLAG-Cat^C (cleaved from SUMO-Flag-Cat^C) (other)
chain: DYKDDDDKMFKLNTKNIKVLTPSGFKSFSGIQKVYKPFYHHIIFDDGSEIKCSDNHSFGKDKIKASTIKVGDYLQGKKVLYNEIVEEGIYLYDLLNVGEDNLYYTNGIVSHACESRGK
notes: also called 15N,13C FLAG-Cat^C
B2: Cat^N (EFE-Cat^N, cleaved from SUMO-Cat^N) (peptide)
peptide: EFEALSGDTMIEILDDDGIIQKISMEDLYQRLA
modifications: also: 15N,13C isotope-labelled form used in NMR
notes: the range 120-152 (EFEALSG...QRLA) is counted by me from that statement; Isotope-labelled (15N, 13C) in NMR; also called 15N,13C Cat^N
B3: SUMO-Flag-Cat^C (other)
chain: MGSSHHHHHHGSGLVPRGSASMSDSEVNQEAKPEVKPEVKPETHINLKVSDGSSEIFFKIKKTTPLRRLMEAFAKRQGKEMDSLRFLYDGIRIQADQTPEDLDMEDNDIIEAHREQIGGDYKDDDDKMFKLNTKNIKVLTPSGFKSFSGIQKVYKPFYHHIIFDDGSEIKCSDNHSFGKDKIKASTIKVGDYLQGKKVLYNEIVEEGIYLYDLLNVGEDNLYYTNGIVSHACESRGK
notes: also called SUMO-Flag-Cats

Key:
[1] = target: B2; test: circular dichroism and analytical size exclusion chromatography of Cat^N, Cat^C and the complex
[2] = target: B1; test: NMR: 1H-15N HSQC, heteronuclear NOE, spin-spin relaxation, Cα-Cβ chemical shift perturbation
[3] = target: T1, Fl-Cat^N (fluorescein labeled Cat^N …); test: kon1: slope of kobs1 against Cat^C concentration, stopped-flow fluorescence anisotropy, 500 mM NaCl
[4] = target: T1, Fl-Cat^N (fluorescein labeled Cat^N …); test: one site binding fit of steady-state fluorescence anisotropy, 500 pM Fl-Cat^N, 100 mM NaCl (fit value below the probe concentration)
[5] = target: T1, Fl-Cat^N (fluorescein labeled Cat^N …); test: one site binding fit of steady-state fluorescence anisotropy, 500 pM Fl-Cat^N, 500 mM NaCl (fit value below the probe concentration)
[6] = target: T1, Fl-Cat^N (fluorescein labeled Cat^N …); test: kon2: slope of kobs2 against Cat^C concentration, stopped-flow fluorescence anisotropy, 500 mM NaCl
[7] = target: T1, Fl-Cat^N (fluorescein labeled Cat^N …); test: kon1: slope of kobs1 against Cat^C concentration, stopped-flow fluorescence anisotropy, 100 mM NaCl
[8] = target: T1, Fl-Cat^N (fluorescein labeled Cat^N …); test: kon2: slope of kobs2 against Cat^C concentration, stopped-flow fluorescence anisotropy, 100 mM NaCl
[9] = target: T1, Fl-Cat^N (fluorescein labeled Cat^N …); test: steady-state fluorescence anisotropy, 500 pM Fl-Cat^N, both low (100 mM NaCl) and high (500 mM NaCl) salt

## B1
[1]
  binding result: binds

## B2
[2]
  binding result: binds

## B3
[3]
  kon: 2.34e+06 M⁻¹ s⁻¹
[4]
  Kd: 0.0339 nM
[5]
  Kd: 0.0804 nM
[6]
  kon: 180000 M⁻¹ s⁻¹
[7]
  kon: 2.8e+06 M⁻¹ s⁻¹
[8]
  kon: 160000 M⁻¹ s⁻¹
[9]
  Kd: < 0.5 nM
